# According to patent US20210403601A1 (FAPON BIOTECH, published 2021):
# Substitutions are numbered along the chain they refer to.
# B1: Mutation 1-20 (antibody, V domains shown)
# VH: QVQLQQPGAELVKPGASVRLSCQTSVETFTTYYIYWVKQRPGEGLEWIGGLNPTSNPVFNEKFKSKATLTVDTSSSTAYMQLSSLTSVDSAVYYCTRSIIRRGYYFDYWGQGTALTVSS
# VL: DIQMTQTTSSLSASLGDRVTISCRASQDIQNYLNWYQQKPDGTIKLLIYYTSRLNSGIPSRFSGSGSGTDYSLTIANLEQEDIATYFCQQDDTIPLTFGAGTKVELKR
# notes: Mutation 1 background; CDRs built
# B2: Mutation 1-10 (antibody, V domains shown)
# VH: QVQLQQPGAELVKPGASVRLSCQTSVNTFSTYYIYWVKQRPGEGLEWIGGINPTSGGPVFNEKFKSKATLTVDTSSSTAYMQLSSLTSVDSAVYYCTRSIVRRGYYFDYWGQGTALTVSS
# VL: B1 VL with L33I, N55Q, I58V, L96I
# notes: as for B1
# B3: Mutation 1-34 (antibody, V domains shown)
# VH: B2 VH with N27D, I51L, I100L
# VL: B1 VL with L33I, N55H, I58L, I94L, L96I
# notes: as for B1
# B4: Mutation 1-23 (antibody, V domains shown)
# VH: B2 VH with N27D, I51L, I100V, V101I
# VL: B1 VL with Q30N, L33I, I58V, I94V
# notes: as for B1
# B5: Mutation 1-40 (antibody, V domains shown)
# VH: B2 VH with N27D, I51L, I100V
# VL: B1 VL with L33I, N55H, I58V, I94V, L96I
# notes: as for B1
# B6: Mutation 1-4 (antibody, V domains shown)
# VH: B2 VH with I100V
# VL: B1 VL with L33I, N55H, I58V, I94V, L96I
# notes: as for B1
# B7: Mutation 1-30 (antibody, V domains shown)
# VH: B2 VH with I100V, V101L
# VL: B1 VL with L33V, N55Q, I58V, I94V
# notes: Mutation 1 background; CDRs built; CDR-VL3 cell printed VL, read as V/L
# B8: Mutation 1-16 (antibody, V domains shown)
# VH: B2 VH with I100L
# VL: B1 VL with L33I, I58V, I94L, L96I
# notes: as for B1
# B9: Mutation 1-31 (antibody, V domains shown)
# VH: B2 VH with S30T, I51L, I100V
# VL: B1 VL with Q30N, L33V, N55H, I58V, I94V, L96I
# notes: as for B1
# B10: Mutation 1-32 (antibody, V domains shown)
# VH: B2 VH with N27D, I51V, I100V, V101I
# VL: B1 VL with I58V, I94V, L96V
# notes: as for B1
# B11: Mutation 1-39 (antibody, V domains shown)
# VH: B2 VH with S30T, I100V, V101L
# VL: B1 VL with Q30N, N55Q, I58V, I94V
# notes: as for B1
# B12: Mutation 1-5 (antibody, V domains shown)
# VH: B2 VH with S30T, I51L, I100V, V101I
# VL: B1 VL with Q30N, L33I, N55H, I58L, I94V
# notes: as for B1
# B13: Mutation 1-22 (antibody, V domains shown)
# VH: B2 VH with S30T, I100V
# VL: B1 VL with L33I, N55H, I58V, I94V, L96I
# notes: as for B1
# B14: Mutation 1-21 (antibody, V domains shown)
# VH: B2 VH with I51V, I100V, V101L
# VL: B1 VL with Q30N, N55Q, I58V, I94V, L96V
# notes: as for B1
# Biological target: T1, Taq DNA polymerase (Thermus aquaticus, UniProt P19821 1-832)
# T1 construct: also called Taq enzyme; Taq DNA enzyme
# Test: AMC sensor, antibody immobilised
# T1 sequence (P19821 whole entry): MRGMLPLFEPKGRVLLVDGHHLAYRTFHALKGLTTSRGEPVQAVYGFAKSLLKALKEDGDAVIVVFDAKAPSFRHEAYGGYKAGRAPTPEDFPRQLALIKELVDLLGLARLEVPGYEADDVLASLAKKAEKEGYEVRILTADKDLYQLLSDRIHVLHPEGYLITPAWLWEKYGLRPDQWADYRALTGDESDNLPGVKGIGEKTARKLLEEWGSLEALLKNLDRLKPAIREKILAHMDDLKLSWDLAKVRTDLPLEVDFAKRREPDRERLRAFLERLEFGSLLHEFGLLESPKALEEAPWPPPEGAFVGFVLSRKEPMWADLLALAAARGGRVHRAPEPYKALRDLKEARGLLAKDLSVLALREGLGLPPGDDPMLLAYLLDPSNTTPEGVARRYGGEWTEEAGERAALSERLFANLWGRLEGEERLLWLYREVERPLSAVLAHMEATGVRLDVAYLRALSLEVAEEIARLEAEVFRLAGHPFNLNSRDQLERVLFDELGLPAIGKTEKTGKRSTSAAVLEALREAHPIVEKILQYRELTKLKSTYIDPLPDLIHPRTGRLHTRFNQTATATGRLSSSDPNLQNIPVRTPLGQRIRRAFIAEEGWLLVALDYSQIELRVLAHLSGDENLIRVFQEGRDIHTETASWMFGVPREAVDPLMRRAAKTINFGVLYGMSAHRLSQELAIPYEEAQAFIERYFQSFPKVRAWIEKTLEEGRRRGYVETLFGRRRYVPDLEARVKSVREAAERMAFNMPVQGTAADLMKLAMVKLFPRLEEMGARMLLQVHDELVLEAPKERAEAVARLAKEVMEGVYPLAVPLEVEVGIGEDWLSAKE
Kd [nM],koff [s⁻¹],kon [M⁻¹ s⁻¹],Binder
0.728,6.43e-05,88300,B1
0.384,3.76e-05,98000,B2
0.987,6.17e-05,62600,B3
0.913,6.41e-05,70200,B4
0.615,4.7e-05,76400,B5
0.719,2.75e-05,38200,B6
0.911,4.49e-05,49300,B7
0.223,1.45e-05,65100,B8
0.85,5.38e-05,63300,B9
0.281,8.8e-06,31300,B10
0.457,2.2e-05,48100,B11
0.873,7.78e-05,89100,B12
0.384,3.7e-05,97200,B13
0.0664,5.96e-06,89800,B14
